T1: Sec17–Golgi SNARE complex (Sec17 bound to the Golgi SNARE complex on GST-Sed5 SNARE domain) (S. cerevisiae, UniProt Q01590 170-319; P25385 1-222; P22804 1-123; P22214 1-188; P32602 1-292)
T1 construct: Sed5, Qa-SNARE, S. cerevisiae, aa170-319; Bos1, Qb-SNARE, S. cerevisiae, aa1-222; Bet1, Qc-SNARE, S. cerevisiae, aa1-123; Sec22, R-SNARE, S. cerevisiae, aa1-188; Sec17, S. cerevisiae; in most experiments Sec17 and Sly1 were added together to the immobilised SNARE complex; also called SNARE-Sec17 complex; Sec17–SNARE complex; source: assembled on …
T1 sequence (looked up) 1: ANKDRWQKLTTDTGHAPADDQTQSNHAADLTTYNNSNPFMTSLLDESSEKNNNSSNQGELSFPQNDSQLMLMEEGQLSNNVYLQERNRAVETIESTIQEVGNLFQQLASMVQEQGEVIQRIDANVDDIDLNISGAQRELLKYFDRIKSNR
T1 sequence (looked up) 2: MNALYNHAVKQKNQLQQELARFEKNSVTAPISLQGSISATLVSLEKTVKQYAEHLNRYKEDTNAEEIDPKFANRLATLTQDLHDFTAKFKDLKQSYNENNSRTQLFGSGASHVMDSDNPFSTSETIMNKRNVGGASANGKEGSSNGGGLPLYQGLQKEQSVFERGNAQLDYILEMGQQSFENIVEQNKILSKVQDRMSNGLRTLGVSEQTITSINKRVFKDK
T1 sequence (looked up) 3: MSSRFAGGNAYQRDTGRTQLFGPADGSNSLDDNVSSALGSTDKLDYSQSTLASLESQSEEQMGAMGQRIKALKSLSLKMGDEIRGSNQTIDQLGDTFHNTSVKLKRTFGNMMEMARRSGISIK
T1 sequence (looked up) 4: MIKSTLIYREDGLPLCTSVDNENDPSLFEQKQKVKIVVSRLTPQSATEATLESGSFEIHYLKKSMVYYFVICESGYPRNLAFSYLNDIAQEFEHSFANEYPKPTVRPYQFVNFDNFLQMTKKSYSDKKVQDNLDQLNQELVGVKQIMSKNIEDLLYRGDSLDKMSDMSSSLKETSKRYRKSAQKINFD
T1 sequence (looked up) 5: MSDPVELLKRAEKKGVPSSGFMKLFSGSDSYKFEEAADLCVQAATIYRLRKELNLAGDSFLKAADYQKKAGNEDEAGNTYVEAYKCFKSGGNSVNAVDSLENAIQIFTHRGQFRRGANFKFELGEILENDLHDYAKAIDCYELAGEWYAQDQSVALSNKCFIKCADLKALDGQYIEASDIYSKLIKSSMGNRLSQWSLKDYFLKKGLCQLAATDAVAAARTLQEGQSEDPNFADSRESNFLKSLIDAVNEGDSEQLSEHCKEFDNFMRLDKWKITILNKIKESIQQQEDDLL

T2: Golgi SNARE complex assembled on immobilized GST-Sed5 SNARE domain (S. cerevisiae, UniProt Q01590 170-319; P25385 1-222; P22804 1-123; P22214 1-188)
T2 construct: Sed5, Qa-SNARE, S. cerevisiae, aa170-319; Bos1, Qb-SNARE, S. cerevisiae, aa1-222; Bet1, Qc-SNARE, S. cerevisiae, aa1-123; Sec22, R-SNARE, S. cerevisiae, aa1-188; quaternary SNARE bundle, no membranes; also called Golgi SNARE bundle; S.C; source: assembled on glutathione sepharose from proteins made in E. coli; not shown: GST, N-terminal, kept; His6, N-terminal, …
T2 sequence (looked up) 1: T1 sequence (looked up) 1
T2 sequence (looked up) 2: T1 sequence (looked up) 2
T2 sequence (looked up) 3: T1 sequence (looked up) 3
T2 sequence (looked up) 4: T1 sequence (looked up) 4

B1: Vps33 (natural protein, S. cerevisiae, UniProt P20795 1-691, looked up)
chain: MNRFWNTKKFSLTNADGLCATLNEISQNDEVLVVQPSVLPVLNSLLTFQDLTQSTPVRKITLLDDQLSDDLPSALGSVPQMDLIFLIDVRTSLRLPPQLLDAAQKHNLSSLHIIYCRWKPSFQNTLEDTEQWQKDGFDLNSKKTHFPNVIESQLKELSNEYTLYPWDLLPFPQIDENVLLTHSLYNMENVNMYYPNLRSLQSATESILVDDMVNSLQSLIFETNSIITNVVSIGNLSKRCSHLLKKRIDEHQTENDLFIKGTLYGERTNCGLEMDLIILERNTDPITPLLTQLTYAGILDDLYEFNSGIKIKEKDMNFNYKEDKIWNDLKFLNFGSIGPQLNKLAKELQTQYDTRHKAESVHEIKEFVDSLGSLQQRQAFLKNHTTLSSDVLKVVETEEYGSFNKILELELEILMGNTLNNDIEDIILELQYQYEVDQKKILRLICLLSLCKNSLREKDYEYLRTFMIDSWGIEKCFQLESLAELGFFTSKTGKTDLHITTSKSTRLQKEYRYISQWFNTVPIEDEHAADKITNENDDFSEATFAYSGVVPLTMRLVQMLYDRSILFHNYSSQQPFILSREPRVSQTEDLIEQLYGDSHAIEESIWVPGTITKKINASIKSNNRRSIDGSNGTFHAAEDIALVVFLGGVTMGEIAIMKHLQKILGKKGINKRFIIIADGLINGTRIMNSIS
notes: Vps33, SM protein of the vacuole, S. cerevisiae; also called vacuole SM protein; late endolysosomal SM; source: insect cells, Baculovirus system, purified
B2: Sly1 (full length, aa1-667) (natural protein, S. cerevisiae, UniProt P22213 1-666, looked up)
chain: MAVEEIASRKDISLRDMQISAILKMLFLNKDLNNNDNITTITDDIFNQQEIIWKVLILDIKSTATISSVLRVNDLLKAGITVHSLIKQDRSPLPDVPAIYFVSPTKENIDIIVNDLKSDKYSEFYINFTSSLPRNLLEDLAQQVSITGKSDKIKQVYDQYLDFIVTEPELFSLEISNAYLTLNDPKTTEEEITGLCANIADGLFNTVLTINSIPIIRAAKGGPAEIIAEKLGTKLRDFVINTNSSSTSTLQGNDSLERGVLIILDRNIDFASMFSHSWIYQCMVFDIFKLSRNTVTIPLESKENGTDNTTAKPLATKKYDIEPNDFFWMENSHLPFPEAAENVEAALNTYKEEAAEITRKTGVTNISDLDPNSNNDTVQIQEVVKKLPELTAKKNTIDTHMNIFAALLSQLESKSLDTFFEVEQDPGSTKTRSRFLDILKDGKTNNLEDKLRSFIVLYLTSTTGLPKDFVQNVENYFKENDYDINALKYVYKLREFMQLSNMSLQNKSLEDGSDSAFKPSNLTLSGIYGLTEGKLQGGVGSLISGIKKLLPEKKTIPITNVVDAIMDPLNSSQKNLETTDSYLYIDPKITRGSHTRKPKRQSYNKSLVFVVGGGNYLEYQNLQEWAHSQLHNPKKVMYGSTAITTPAEFLNEISRLGASNSSNNDA
notes: Sly1, Golgi SM protein, S. cerevisiae, printed as full-length aa1-667; construct His6-(tev)-Sly1; as I recall the UniProt entry has 666 residues; the printed 667 may count the stop codon; also called His6-Sly1; Golgi SM protein; source: E. coli (pRIL plasmid), purified (Ni-NTA)
B3: Sec17 (natural protein, S. cerevisiae, UniProt P32602 1-292, looked up)
chain: T1 sequence (looked up) 5
notes: Sec17, S. cerevisiae; construct CBD-(intein)-Sec17 in pTYB12; an intein tag is as a rule cut off during purification; also called α-SNAP homolog; Sec18 adapter; source: E. coli (pRIL plasmid), purified
B4: GST-Sed5 full cytoplasmic domain (aa1-319) (domain or fragment, S. cerevisiae, UniProt Q01590 1-319, looked up)
chain: MNIKDRTSEFQQSVLSYKKRNKNFREQQRERLQEKESENFANNTTGNGKSVSEFQKKASGIAHEISSTAQLLSKLAVLAKRKPMFNDNPVEIAELSFLIKRKIYAIEQSLVQLSQLKKTDVNGNTSNQSSKQPSAVQHSKNVVNLLNTQMKNISGSFKDVLEERQRLEMANKDRWQKLTTDTGHAPADDQTQSNHAADLTTYNNSNPFMTSLLDESSEKNNNSSNQGELSFPQNDSQLMLMEEGQLSNNVYLQERNRAVETIESTIQEVGNLFQQLASMVQEQGEVIQRIDANVDDIDLNISGAQRELLKYFDRIKSNR
notes: Sed5, Golgi Qa-SNARE, S. cerevisiae, full cytoplasmic domain aa1-319 with N-peptide and Habc segments, no transmembrane domain; also called GST-Sed5FL; Sed5FL; not shown: GST, N-terminal, kept

Tests used:
Details in all cases: both partners purified
[1] = target: T3, Sec17–vacuole SNARE complex (Sec17 bound to the vacuole SNARE complex on Vam3-GST) (S. cerevisiae, UniProt Q12241 1-264; Q04338 1-194; P32912 190-316; Q12255 1-231; P32602 1-292); test: pull-down; stoichiometry: complexes assembled on immobilised SNARE complex under saturation binding conditions; SDS-PAGE, SYPRO Ruby, band intensities against standard curves of the purified proteins; apparent
T3 construct: Vam3, Qa-SNARE, S. cerevisiae, aa1-264; Vti1, Qb-SNARE, S. cerevisiae, aa1-194; Vam7, Qc-SNARE, S. cerevisiae, SNARE domain aa190-316; Nyv1, R-SNARE, S. cerevisiae, aa1-231; Sec17, S. cerevisiae; in most experiments Sec17 and the SM were added together to the immobilised SNARE complex; also called SNARE–Sec17 complex; Sec17–SNARE complex; source: assembled …

[2] = target: T4, vacuole SNARE complex assembled on immobilized Vam3-GST (S. cerevisiae, UniProt Q12241 1-264; Q04338 1-194; P32912 190-316; Q12255 1-231); test: pull-down; quantitative: immobilised SNARE complex, SM concentration varied, with or without Sec17, 30°C; SYPRO Ruby with standard curves; fractional saturation against free SM, one-site model; apparent (Kdobs), non-equilibrium measurements
T4 construct: Vam3, Qa-SNARE, S. cerevisiae, aa1-264; Vti1, Qb-SNARE, S. cerevisiae, aa1-194; Vam7, Qc-SNARE, S. cerevisiae, SNARE domain aa190-316; Nyv1, R-SNARE, S. cerevisiae, aa1-231; quaternary SNARE bundle, no membranes; also called vacuolar SNARE complex; SNARE bundle; source: assembled on glutathione sepharose from proteins made in E. coli; not shown: GST, C-terminal, …

[3] = target: T3, Sec17–vacuole SNARE complex (Sec17 …); test: as above
[4] = target: T1, Sec17–Golgi SNARE complex (Sec17 bound …); test: pull-down; stoichiometry: complexes assembled on immobilised SNARE complex under saturation binding conditions; SDS-PAGE, SYPRO Ruby, band intensities against standard curves of the purified proteins; apparent
[5] = target: T1, Sec17–Golgi SNARE complex (Sec17 bound …); test: pull-down; quantitative: immobilised SNARE complex, SM concentration varied, with or without Sec17, 30°C; SYPRO Ruby with standard curves; fractional saturation against free SM, one-site model; apparent (Kdobs), non-equilibrium measurements
[6] = target: T4, vacuole SNARE complex assembled on …; test: pull-down; stoichiometry: complexes assembled on immobilised SNARE complex under saturation binding conditions; SDS-PAGE, SYPRO Ruby, band intensities against standard curves of the purified proteins; apparent
[7] = target: T2, Golgi SNARE complex assembled on …; test: as above
[8] = target: B2; test: pull-down; full cytoplasmic domain of Sed5 (GST-Sed5FL, 500 nM) immobilised without assembled SNARE complex; Sly1 (10 µM) and Sec17; 30°C; Coomassie

T3 sequence (Q12241 1-264, chain 1 of 4): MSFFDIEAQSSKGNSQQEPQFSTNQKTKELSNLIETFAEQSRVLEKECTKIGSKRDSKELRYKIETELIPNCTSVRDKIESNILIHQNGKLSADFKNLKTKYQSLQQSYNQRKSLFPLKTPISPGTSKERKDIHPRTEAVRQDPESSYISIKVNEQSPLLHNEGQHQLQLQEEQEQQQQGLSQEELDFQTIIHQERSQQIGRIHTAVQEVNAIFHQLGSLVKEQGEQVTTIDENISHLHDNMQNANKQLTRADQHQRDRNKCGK
T3 sequence (Q04338 1-194, chain 2 of 4): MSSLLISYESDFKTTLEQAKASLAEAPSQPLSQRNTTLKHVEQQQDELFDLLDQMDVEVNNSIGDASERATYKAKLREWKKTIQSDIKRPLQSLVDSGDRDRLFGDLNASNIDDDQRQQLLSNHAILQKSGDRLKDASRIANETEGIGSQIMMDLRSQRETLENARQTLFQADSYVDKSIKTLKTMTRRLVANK
T3 sequence (P32912 190-316, chain 3 of 4): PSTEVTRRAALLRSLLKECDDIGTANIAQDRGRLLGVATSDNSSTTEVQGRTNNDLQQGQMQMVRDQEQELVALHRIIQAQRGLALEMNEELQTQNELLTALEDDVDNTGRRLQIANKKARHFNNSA
T3 sequence (Q12255 1-231, chain 4 of 4): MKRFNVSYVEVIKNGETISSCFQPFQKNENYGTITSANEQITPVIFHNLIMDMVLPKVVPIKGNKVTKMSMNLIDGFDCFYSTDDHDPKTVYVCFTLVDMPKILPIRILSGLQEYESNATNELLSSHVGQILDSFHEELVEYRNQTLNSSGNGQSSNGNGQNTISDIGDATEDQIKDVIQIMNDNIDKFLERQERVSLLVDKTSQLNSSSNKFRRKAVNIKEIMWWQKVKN
T4 sequence (Q12241 1-264, chain 1 of 4): as the sequence (Q12241 1-264, chain 1 of 4) above
T4 sequence (Q04338 1-194, chain 2 of 4): as the sequence (Q04338 1-194, chain 2 of 4) above
T4 sequence (P32912 190-316, chain 3 of 4): as the sequence (P32912 190-316, chain 3 of 4) above
T4 sequence (Q12255 1-231, chain 4 of 4): as the sequence (Q12255 1-231, chain 4 of 4) above

## B1
[1]
  stoichiometry N: 1 Vps33 per SNARE complex
[2]
  Kd: 1600 ± 100 nM
[3]
  Kd: 300 ± 10 nM

## B2
[4]
  stoichiometry N: 1 Sly1 per SNARE complex
[5]
  Kd: 1000 ± 100 nM

## B3
[6]
  stoichiometry N: 3 Sec17 per SNARE complex
[7]
  stoichiometry N: 3 Sec17 per SNARE complex

## B4
[8]
  binding result: binds

— article PMC4060006, “SM proteins Sly1 and Vps33 co-assemble with Sec17 and SNARE complexes to oppose SNARE disassembly by Sec18” (eLife, 2014)
